# Measured values taken from patent publication US20180118848A1 (Regeneron, published 2018).
# Key:
# human MUC16 (mucin 16) [1] = target: T1, human MUC16 (mucin 16) (human); assay: FACS binding titration on OVCAR3-Luc (MUC16+) cells
# T1 construct: Endogenously expressed on human tumour cell lines; also called hMUC16
# Experimental: (§1) A. Briefly, flow cytometric analysis (i.e. fluorescence-activated cell sorting, or FACS) was utilized to determine binding of bispecific antibodies to Jurkat cells or cells expressing human MUC16, followed by detection with a phycoerythrin (PE)-labeled or APC-labeled anti-human IgG antibody. […] After incubation, the cells were washed twice with cold PBS containing 1% filtered FBS and a PE-conjugated or APC-conjugated anti-human secondary antibody was added to the cells and incubated for an additional 30 minutes. Wells containing no antibody or secondary only were also used as controls. After incubation, cells were washed, re-suspended in 200 μL cold PBS containing 1% filtered FBS and analyzed by flow cytometry on a BD FACS Canto II.
# B. In separate experiments with analogous conditions to that described above, flow cytometric analysis (or FACS) was utilized to determine binding of select bispecific antibodies to Jurkat cells, PEO-1, OVCAR3-Luc and cynomolgus T cells. […]
# For FACS analysis, cells were gated by forward scatter height vs. forward scatter area for single events selection, followed by side and forward scatters. The EC50 for cell binding titration was determined using PRISM™ software (GraphPad Software, Inc., La Jolla, Calif.). Values were calculated using 4-parameter non-linear regression analysis. […]
# human MUC16 (mucin 16) [2] = target: T1, human MUC16 (mucin 16); assay: FACS binding titration on PEO-1 (MUC16+) cells
# Experimental: as §1
# B. In separate experiments with analogous conditions to that described above, flow cytometric analysis (or FACS) was utilized to determine binding of select bispecific antibodies to Jurkat cells, PEO-1, OVCAR3-Luc and cynomolgus T cells. For the titration analysis, serial dilution of selected MUC16×CD3 bispecific antibodies, a first isotype control antibody (a human chimeric IgG4 antibody that binds an irrelevant human antigen with no cross-reactivity to human or cynomolgus CD3) and a second isotype control antibody (a human chimeric IgG4 antibody that binds an irrelevant human antigen with no cross-reactivity to human MUC16), ranging from 66.6 nM to 0.001 nM.
# For FACS analysis, cells were gated by forward scatter height vs. forward scatter area for single events selection, followed by side and forward scatters. The EC50 for cell binding titration was determined using PRISM™ software (GraphPad Software, Inc., La Jolla, Calif.). Values were calculated using 4-parameter non-linear regression analysis. (Liu, J., et al. 2005, Biotechnol Letters 27:1821-1827).
# human MUC16 (mucin 16) [3] = target: T1, human MUC16 (mucin 16); assay: cell-based or functional assay
# human MUC16 (mucin 16) [4] = target: T1, human MUC16 (mucin 16); assay: cell-based or functional assay; remark: listed apart in the source
# human MUC16 (mucin 16) [5] = target: T1, human MUC16 (mucin 16); assay: MSD ECL cell binding, RLU ratio OVCAR-3 vs SK-OV-3, 16.7 nM Ab; NS = ratio <2.5-fold
# Experimental: The ability of anti-MUC16 antibodies to bind specifically to endogenously expressing MUC16 on the human ovarian carcinoma cell line (OVCAR-3) was evaluated via an electrochemiluminescence based detection assay (Meso Scale Discovery (MSD), Rockville, Md.). […] Detached cells were then washed once in 1×PBS supplemented with Ca²⁺/Mg²⁺ and counted (Cellometer Auto T4 cell counter, Nexcelom Bioscience, Lawrence, Mass.). Approximately 1.0×10⁴ cells were plated in MULTI-ARRAY 96-well carbon electrode plates (MSD) and incubated for 1 h at 37° C. […] Next, serial dilutions of anti-MUC16 or control antibodies (0.85 pM-50 nM) and no-antibody buffer controls were added to the plate-bound cells and incubated for 1 h at room temperature (RT). […] Plate-bound antibodies were detected with a SULFO-TAG™-conjugated anti-human kappa light chain antibody (Regeneron) or a SULFO-TAG™-conjugated anti-mouse IgG antibody (Jackson Immunoresearch, West Grove, Pa.) for 1 h at RT. Post-wash, plates were developed with Read Buffer (MSD) according to manufacturer's protocol and luminescent signals were recorded with a SECTOR Imager 6000 (MSD) instrument.
# (§2) Luminescence intensity, measured in relative light units (RLU), for the two cell lines was recorded to indicate the binding intensity of each antibody.
# human MUC16 (mucin 16) [6] = target: T1, human MUC16 (mucin 16); assay: MSD ECL cell binding, RLU ratio OVCAR-3 vs SK-OV-3, 1.9 nM Ab
# Experimental: The ability of anti-MUC16 antibodies to bind specifically to endogenously expressing MUC16 on the human ovarian carcinoma cell line (OVCAR-3) was evaluated via an electrochemiluminescence based detection assay (Meso Scale Discovery (MSD), Rockville, Md.). […] Detached cells were then washed once in 1×PBS supplemented with Ca²⁺/Mg²⁺ and counted (Cellometer Auto T4 cell counter, Nexcelom Bioscience, Lawrence, Mass.). Approximately 1.0×10⁴ cells were plated in MULTI-ARRAY 96-well carbon electrode plates (MSD) and incubated for 1 h at 37° C. […] Next, serial dilutions of anti-MUC16 or control antibodies (0.85 pM-50 nM) and no-antibody buffer controls were added to the plate-bound cells and incubated for 1 h at room temperature (RT). Plates were then washed to remove the unbound antibodies using an AquaMax2000 plate washer (MDS Analytical Technologies, Sunnyvale, Calif.). Plate-bound antibodies were detected with a SULFO-TAG™-conjugated anti-human kappa light chain antibody (Regeneron) or a SULFO-TAG™-conjugated anti-mouse IgG antibody (Jackson Immunoresearch, West Grove, Pa.) for 1 h at RT. Post-wash, plates were developed with Read Buffer (MSD) according to manufacturer's protocol and luminescent signals were recorded with a SECTOR Imager 6000 (MSD) instrument.
# as §2
# human MUC16 (mucin 16) [7] = target: T1, human MUC16 (mucin 16); assay: FACS binding titration on OVCAR3 (MUC16+) cells
# human MUC16 (mucin 16) [8] = target: T1, human MUC16 (mucin 16); assay: cell-based or functional assay; remark: listed apart in the source
Binder,EC50 (human MUC16 (mucin 16) [1]),EC50 (human MUC16 (mucin 16) [2]),PEO-1 cell depletion EC50 (human MUC16 (mucin 16) [3]),OVCAR3-Luc cell depletion EC50 (human MUC16 (mucin 16) [4]),Ratio anti-MUC16 Binding OVCAR-3/SK-OV-3 (human MUC16 (mucin 16) [5]),Ratio anti-MUC16 Binding OVCAR-3/SK-OV-3 (human MUC16 (mucin 16) [6]),EC50 (human MUC16 (mucin 16) [7]),OVCAR3 cell depletion EC50 (human MUC16 (mucin 16) [8])
"BSMUC16/CD3-005 (bispecific antibody, V domains shown, Anti-MUC16 HCVR of H1H8767P, anti-CD3 HCVR CD3-VH-G20, common light chain of H1H8767P; also called anti-MUC16xCD3 bispecific antibody with CD3-VH-G20 arm; REGN4019) VH 1: QVQLVESGGGLVKPGGSLRLSCAASGFTFSNYYMSWVRQAPGKGLEWISYISGRGSTIFYADSVKGRITISRDNAKNSLFLQMNSLRAEDTAVYFCVKDRGGYSPYWGQGTLVTVSS VH 2: EVQLVESGGGLVQPGRSLRLSCAASGFTFDDYSMHWVRQAPGKGLEWVSGISWNSGSIGYADSVKGRFTISRDNAKNSLYLQMNSLRAEDTALYYCAKYGSGYGKFYYYGMDVWGQGTTVTVSS VL: not shown",1470 pM,2630 pM,77.4 pM,51.6 pM,,,,
"H1H8767P (antibody, human IgG1, V domains shown, Human IgG1) VH: QVQLVESGGGLVKPGGSLRLSCAASGFTFSNYYMSWVRQAPGKGLEWISYISGRGSTIFYADSVKGRITISRDNAKNSLFLQMNSLRAEDTAVYFCVKDRGGYSPYWGQGTLVTVSS VL: not shown",,,,,< 2.5 ratio,4 ratio,,
"BSMUC16/CD3-001 (bispecific antibody, V domains shown, Anti-MUC16 HCVR of H1H8767P, anti-CD3 HCVR CD3-VH-G, common light chain of H1H8767P; also called anti-MUC16xCD3 bispecific antibody with CD3-VH-G arm) VH 1: QVQLVESGGGLVKPGGSLRLSCAASGFTFSNYYMSWVRQAPGKGLEWISYISGRGSTIFYADSVKGRITISRDNAKNSLFLQMNSLRAEDTAVYFCVKDRGGYSPYWGQGTLVTVSS VH 2: EVQLVESGGGLVQPGRSLRLSCAASGFTFDDYSMHWVRQAPGKGLEWVSGISWNSGSKGYADSVKGRFTISRDNAKNSLYLQMNSLRAEDTALYYCAKYGSGYGKFYHYGLDVWGQGTTVTVSS VL: not shown",1320 pM,3020 pM,25.6 pM,15.4 pM,,,1200 pM,22.4 pM
"BSMUC16/CD3-002 (bispecific antibody, V domains shown, Anti-MUC16 HCVR of H1H8767P, anti-CD3 HCVR CD3-VH-G5, common light chain of H1H8767P; also called anti-MUC16xCD3 bispecific antibody with CD3-VH-G5 arm) VH 1: QVQLVESGGGLVKPGGSLRLSCAASGFTFSNYYMSWVRQAPGKGLEWISYISGRGSTIFYADSVKGRITISRDNAKNSLFLQMNSLRAEDTAVYFCVKDRGGYSPYWGQGTLVTVSS VH 2: EVQLVESGGGLVQPGRSLRLSCAASGFTFDDYSMHWVRQAPGKGLEWVSGISWNSGSIGYADSVKGRFTISRDNAKNSLYLQMNSLRAEDTALYYCAKDGSGYGKFYYYGMDVWGQGTTVTVSS VL: not shown",,3130 pM,67.5 pM,,,,2690 pM,30.6 pM
"H1H8808P (antibody, human IgG1, V domains shown, Human IgG1) VH: QVQLVESGGGVVQPGRSLRLSCVASGFTFSNYGIHWVRQAPGKGLEWVAVISDDGSFKFYADSVKGRFTISRDNSKNTLYLQMNSLRVEDSAVYHCAKWQHNWNDGGFDYWGQGTLVTVSS VL: EIVLTQSPDTLSLSPGERATLSCRASQSLSSNYLAWYRQKPGQAPRLLIYGISSRATGIPDRFSGSGSGTDFTLTISRLEPEDFAVYYCQQYGSSPWTFGQGTKVEIK",,,,,< 2.5 ratio,4 ratio,,
